Results taken from IntAct's records for PubMed 9830048.

B1: Synaptotagmin-1 (Rattus norvegicus (Rat)), P21707 (parent)
chain: MVSASHPEALAAPVTTVATLVPHNATEPASPGEGKEDAFSKLKQKFMNELHKIPLPPWALIAIAIVAVLLVVTCCFCVCKKCLFKKKNKKKGKEKGGKNAINMKDVKDLGKTMKDQALKDDDAETGLTDGEEKEEPKEEEKLGKLQYSLDYDFQNNQLLVGIIQAAELPALDMGGTSDPYVKVFLLPDKKKKFETKVHRKTLNPVFNEQFTFKVPYSELGGKTLVMAVYDFDRFSKHDIIGEFKVPMNTVDFGHVTEEWRDLQSAEKEEQEKLGDICFSLRYVPTAGKLTVVILEAKNLKKMDVGGLSDPYVKIHLMQNGKRLKKKKTTIKKNTLNPYYNESFSFEVPFEQIQKVQVVVTVLDYDKIGKNDAIGKVFVGYNSTGAELRHWSDMLANPRRPIAQWHTLQVEEEVDAMLAVKK

Variants of: B1
Conditions: with cac1b_rat Cacna1b

Row | effect of a mutation on the interaction | Variant
1 | decreasing interaction | K326A;K327A

Variants of: B1
Conditions: with ap2a2_rat Ap2a2, P18484
Chain of ap2a2_rat Ap2a2, P18484 (P18484 whole entry): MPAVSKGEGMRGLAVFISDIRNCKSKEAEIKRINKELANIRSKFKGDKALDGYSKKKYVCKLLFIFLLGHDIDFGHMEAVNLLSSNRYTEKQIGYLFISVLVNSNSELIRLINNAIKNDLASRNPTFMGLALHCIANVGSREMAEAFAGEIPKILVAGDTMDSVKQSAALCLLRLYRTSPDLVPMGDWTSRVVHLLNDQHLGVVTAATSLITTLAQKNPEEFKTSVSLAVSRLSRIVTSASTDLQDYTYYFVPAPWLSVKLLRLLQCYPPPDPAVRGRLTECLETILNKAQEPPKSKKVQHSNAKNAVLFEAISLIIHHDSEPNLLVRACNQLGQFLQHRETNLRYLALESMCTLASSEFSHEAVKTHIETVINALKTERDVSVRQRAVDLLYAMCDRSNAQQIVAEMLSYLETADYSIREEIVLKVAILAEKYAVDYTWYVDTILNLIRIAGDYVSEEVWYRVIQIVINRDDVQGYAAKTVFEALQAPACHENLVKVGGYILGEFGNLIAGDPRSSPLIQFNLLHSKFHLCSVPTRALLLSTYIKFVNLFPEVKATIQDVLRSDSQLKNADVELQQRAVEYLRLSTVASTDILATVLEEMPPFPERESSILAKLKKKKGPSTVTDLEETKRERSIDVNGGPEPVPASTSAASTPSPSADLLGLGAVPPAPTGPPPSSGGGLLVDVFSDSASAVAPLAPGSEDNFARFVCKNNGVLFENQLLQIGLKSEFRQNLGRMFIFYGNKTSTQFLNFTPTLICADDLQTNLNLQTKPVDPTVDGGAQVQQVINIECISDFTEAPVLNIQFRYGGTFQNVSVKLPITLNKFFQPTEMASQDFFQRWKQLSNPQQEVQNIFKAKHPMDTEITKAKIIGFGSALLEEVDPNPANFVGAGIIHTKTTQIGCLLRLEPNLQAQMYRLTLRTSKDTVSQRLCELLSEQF

Row | effect of a mutation on the interaction | Variant
2 | decreasing interaction | K326A;K327A
